Values quoted from earlier work, collected in PMC4456024.

Molecular target: cTnI147-163 (Homo sapiens)
Assay: NMR titration

cTnC (cNTnC) 1-89 (from UniProt P63316)
Kd: 150 µM
